Assay results from PMC10241049, “Derivation of the small-angle scattering profile of a target biomacromolecule from a profile deteriorated by aggregates. AUC–SAS” (Journal of Applied Crystallography, 2023).

Target: the molecule itself
Assay: AUC + other: small-angle X-ray scattering (AUC-SAS); sedimentation velocity AUC (45 000 r/min, interference optics) and laboratory SAXS, 298 K; 2.0 mg/ml in 100 mM Tris-HCl pH 7.5, 100 mM NaCl; the derived profile of the main component was compared with the structure of the 24-mer and with SEC-SAXS

B1: apoferritin (natural protein)
chain: SSQIRQNYSTEVEAAVNRLVNLYLRASYTYLSLGFYFDRDDVALEGVCHFFRELAEEKREGAERLLKMQNQRGGRALFQDLQKPSQDEWGTTLDAMKAAIVLEKSLNQALLDLHALGSAQADPHLCDFLESHFLDEEVKLIKKMGDHLTNIQRLVGSQAGLGEYLFERLTLKHD
notes: apoferritin; it uses PDB 4v1w as the structure of this protein; PDB 4v1w is horse spleen apoferritin (light chain); also called AF; AF5; source: bought: Merck, Sigma-Aldrich; purified by SEC (Superose 6 Increase 10/300 GL); copies: 24
stoichiometry N: 24
